Laboratory results reported in publication PMC6499931.

Experiments:
[1] = target: human FcγRIIIa stably expressed on CHO cells (human) (UniProt P08637); assay: flow cytometry on cells
[2] = target: human FcγRIIIa stably expressed on CHO cells (human) (UniProt P08637)

Sequence of UniProt P08637 (P08637 17-254): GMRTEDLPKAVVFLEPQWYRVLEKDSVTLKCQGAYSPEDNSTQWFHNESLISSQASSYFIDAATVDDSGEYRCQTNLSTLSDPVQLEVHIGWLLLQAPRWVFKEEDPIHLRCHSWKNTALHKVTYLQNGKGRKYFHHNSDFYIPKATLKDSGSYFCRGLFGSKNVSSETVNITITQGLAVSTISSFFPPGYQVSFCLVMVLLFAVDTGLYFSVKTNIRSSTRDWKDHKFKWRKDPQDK

B1: BMS-986012, nonfucosylated fully human IgG1 anti-fucosyl-GM1 antibody (antibody, V domains shown)
VH: EVQLVESGGGSVQPGESLRLSCVASGFTFSRYKMNWVRQAPGKGLEWVSYISRSGRDIYYADSVKGRFTISRDNAKNSLYLQMNSLRDEDTAVYYCAGTVTTYYYDFGMDVWGQGTTVTVSS
VL: DIQMTQSPSSLSASVGDRVTITCRASQGISSWLAWYQQKPEKAPKSLIYAASSLQSGVPSRFSGSGSGTDFTLTISSLQPEDFATYYCQQYNSYPPTFGGGTKVEIK
Question: Which results are given for B1?
Answer: EC50 [1]: 3.5 nM; NK cell-mediated ADCC against the FucGM1+ SCLC cell line DMS79, EC50 [2]: 0.06 nM

B2: 7E4, fucosylated parental anti-fucosyl-GM1 antibody in conventional fucosylated IgG1 format (antibody, V domains shown)
VH: EVQLVESGGGSVQPGESLRLSCVASGFTFSRYKMNWVRQAPGKGLEWVSYISRSGRDIYYADSVKGRFTISRDNAKNSLYLQMNSLRDEDTAVYYCAGTVTTYYYDFGMDVWGQGTTVTVSS
VL: DIQMTQSPSSLSASVGDRVTITCRASQGISSWLAWYQQKPEKAPKSLIYAASSLQSGVPSRFSGSGSGTDFTLTISSLQPEDFATYYCQQYNSYPPTFGGGTKVEIK
Question: Which EC50 [1] does the source give for B2 here?
Answer: Its EC50 is 138 nM.

Question: What about the NK cell-mediated ADCC against the FucGM1+ SCLC cell line DMS79, EC50 [2] of the same binder?
Answer: The NK cell-mediated ADCC against the FucGM1+ SCLC cell line DMS79, EC50 was 8 nM.
